Assay [1] deals with T1, CLDN6 endogenously expressed by human cancer cell lines (ARK2, OVCA429) (human, UniProt P56747 1-220).
T1 construct: Untagged endogenous protein; also called Endogenous CLDN6+
T1 sequence: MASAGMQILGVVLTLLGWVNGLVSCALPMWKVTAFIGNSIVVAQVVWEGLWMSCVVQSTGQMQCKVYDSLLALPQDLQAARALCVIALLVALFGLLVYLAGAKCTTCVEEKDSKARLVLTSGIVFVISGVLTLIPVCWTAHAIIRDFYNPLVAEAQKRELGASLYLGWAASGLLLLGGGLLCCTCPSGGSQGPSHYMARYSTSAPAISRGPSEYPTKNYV
Description: FACS, AF647-labelled mAb, ARK2 cells. The method, then:
(§1) Antibodies were purified and cell surface binding of the antibodies to CLDN6 and the antibody IC₅₀ were determined by FACS in which CLDN6 antibodies were directly conjugated with Alexa Fluor® 647 NHS Ester (Succinimidyl Ester), Cat #A20106 (ThermoFisher Scientific) following the manufacturer's protocol. CLDN6 antibodies were tested from 0.32 nM to 1000 nM (serial dilution 1:5, 6 points) in a 50 μl volume with 150,000 cells system.
(§2) CLDN6-expressing cells were used in FACS assays to determine the CLDN6 antibody's ability to bind to CLDN6 on the surface of cells and to cross-react with other CLDN family members. HEK293 T cells engineered to express human CLDN6 fused to GFP, mouse CLDN6 fused to GFP, CLDN9-GFP, CLDN4-GFP, or CLDN3-GFP, or GFP alone (without CLDN6) were used as artificial models of CLDN6 expression. ARK2, OVCA429, LS513 and MCF7 cells were used as endogenous models of CLDN6 expression, as well as models for CLDN3/4 expression.
(§3) For each type of cell tested and for each mAb, cells were detached from the surface of the culture flasks by EDTA (instead of trypsin) in order to protect the cell surface proteins. The detached cells were then incubated with Alexa Fluor®-labeled CLDN6 mAbs for 30 min in the dark on ice at a pre-determined concentration. The CLDN6 mAbs were directly labeled with Alexa Fluor® 647 NHS Ester (Succinimidyl Ester). After washing, the cells were read by a BD Accuri™ Flow Cytometer C6 to detect antibody-antigen protein binding in channel FL4H. Each antibody was tested at varied concentrations to establish a dose-fluorescence curve. The EC50/IC50 of the antibodies (the concentration of the antibody at which half the max value were calculated based on the values of FL4H (gated in viable singlet cells) using the Very Simple IC50 Tool kit available online which allows biological dose-response data to be plotted and fitted to curve types to give the EC50/IC50. The max value was the lowest concentration of the antibody at which fluorescence maxes out. The antibodies were also screened for their ability to cross-react with other CLDN proteins such as CLDN9, CLDN3, and CLDN4. These values were used to determine each antibody's relative affinity among the set of antibodies tested. Cross-reactivity data were obtained using a similar methodology, but with cells having a different expression profile for CLDN6, CLDN3, CLDN4 and CLDN9.
A general note: Flow cytometry measures light scatter and fluorescence of single cells or particles in a stream.

Assay [2] concerns the target T1, CLDN6 endogenously expressed by human …. Description: FACS, AF647-labelled mAb, OVCA429 cells. The method, then:
as §1, §2, §3

For assay [3], the target named is T2, human CLDN6 fused to GFP, expressed on engineered HEK293T cells (HEK293T-CLDN6-mGFP) (human, UniProt P56747 1-220).
T2 construct: It calls residues 1-21 a signal peptide; also called Claudin-6; HEK293T-CLDN6-mGFP Artificial CLDN6+; not shown: mGFP tag
T2 sequence: T1 sequence
Description: FACS, AF647-labelled mAb, HEK293T-CLDN6-mGFP cells. Here is the method: as §1, §2, §3

Where a chain is given by its changes, count along the chain named.

B1: AB7 (antibody, V domains shown)
VH: EVQLQQSGPELVKPGASMKISCKASGYSFTGYTMNWVKQSHGKNLEWIGLINPYNGGTNYNQKFKGKATLTVDKSSSTAYMELLSLTSEDSAVYYCARGVYDYDGFTYWGQGTLVTVSA
VL: QIVLTQSPAIMSASLGDRVTMTCTASSSVSSSYLHWYQQKPGSSPKLWIYSTSNLASGVPARFSGSGSGTSYSLTISSMEAEDAATYYCHQYHRSPPTFGSGTKLEIK
notes: Labelled with Alexa Fluor 647 NHS ester for FACS
Usually EC50 stands for the concentration that produces a half-maximal response. A higher EC50 goes with weaker potency. As to B1, the figures for the EC50 in assay [1], in assay [2] and in assay [3] were 0.353 µM, 0.531 µM and 0.579 µM, respectively.

B2: AB8 (antibody, V domains shown)
VH: QVQLQQSGAELARPGASVKMSCKASGYTFTTYTMHWLKQRPGQGLEWIGYINPRSGYSNYNQKFKDKATLTADKSSNTAYMQLNTLTSEDSKVYYCSRGELGGFAYWGQGTLVTVSA
VL: DVVMTQTPLSLPVSLGDQASISCRSSQSLVHSDGNTYLYWYLQKPGQSPKLLIYKVSNRFSGVPDRFSGSGSGTDFTLKISRVEAEDLGVYFCSQSTHVPYTFGGGTKLEIK
notes: as for B1
B2: the EC50 turned out to be 1.14 µM in assay [1], 1.09 µM in assay [2] and 1.92 µM in assay [3].

B3: AB10 (antibody, V domains shown)
VH: QIQLVQSGPALKKPGETVKISCKASGYTFTDYSMHWIKQAPGKGLKWMGWISTETGEPTYADGFKGRFDFSLETSADTAYLSINNLTNEDTATYFCTRGLWSSFAYWGQGTLVTVSA
VL: B2 VL with S25A, D33N, Y39H, Y41F, G73R, S96I
notes: as for B1
As to B3, the EC50 in assay [1] was 2.14 µM; in assay [2], 2.47 µM; in assay [3], 2.76 µM.

B4: AB14 (antibody, V domains shown)
VH: QVQLQQSGPELVRPGVSVKISCKGSGYTFTDYAMHWVKQSHAKSLEWIGVISTYSGNTNYNQKFQDKATMTVDKSSSTAYMALARLTSDDSAIYYCARRGDYSLYAMDYWGQGTSVTVSS
VL: DIVLTQSPASLAVSLGQRATISCKASQSVDYDGDNYVNWYQQKVGQPPKLLISAASNLESGIPARFSGSGSGTDFTLNIHPVEEEDAATYYCQQSNEDPFTFGSGTKLEIK
notes: as for B1
As to B4, the EC50 was 1.3 µM in assay [1], 1.66 µM in assay [2] and not below 5 µM in assay [3].

B5: AB13 (antibody, V domains shown)
VH: QVQLQQSGAELVRPGTSVKVSCKASGYAFSNYLIEWVKQRPGQGLEWIGVINPGSGGTNYNEKFKGKATMTADKSSSTAYMHLSNLTSEDSVVYFCARSYFGRSYPYTMDYWGQGTSVTVSS
VL: EIVLTQSPTTMAASPGEKITITCSASSSISSNYLHWYQQKPGFSPKLLIYRTSNLASGVPARFSGSGSGTSYSLTIGTMEAEDVATYYCQQGSSIPLTFGAGTKLELK
notes: as for B1
Take B5: the EC50 is 1.15 µM in assay [1], 2.29 µM in assay [2] and not below 5 µM in assay [3].

B6: AB18 (antibody, V domains shown)
VH: QVQLKQSGPELEKPGASVKISCKASGYSFTGYNMNWVKQSNGKSLEWIGNIDPYYGGSTYNQKFTGKATLTVDKSSSTAYMQLKSLTSEDSAVYYCARERSGYVFSAMDYWGQGTSVTVSS
VL: NIMMTQSPSSLAVSAGEKVTMSCKSSQSVLFSSNQKNYLAWYQQKPGQSPRLLIYWASTRESGVPDRFTGSGSGTDFTLTISNVQAEDLAVYYCHQYLSSRTFGAGTKLELK
notes: as for B1
For the molecule B6, the EC50 in assay [1] is 1.35 µM; in assay [2], 2.44 µM; in assay [3] it was not below 5 µM.

B7: AB9 (antibody, V domains shown)
VH: EVQLQQSGPELVKPGASVKMSCKASGYRFTDYNMHWVKQSHGKSLEWIGYINPNNGGTNYNQNFKGKATLTVNKSSSTAYMELRSLTSEDSAAYYCARDYLYFFDCWGQGTTLTVSS
VL: DIQMTQSPASQSASLGESVTITCLASQTIGTWLAWYQQKPGKSPQLLIYAAASLADGVPSRFSGSGSGTRFSFKISSLQAEDFVSYYCQQLYSIPRTFGGGTKLEIK
notes: as for B1
In the case of B7, the EC50 is 1.14 µM in assay [1], 1.17 µM in assay [2] and 2.67 µM in assay [3].

B8: AB6 (antibody, V domains shown)
VH: DVQLQESGPGLVKSSQSLSLTCSVTGYSITSGYYWKWIRQFPGNKLEWMGYISYDGGINYNPSLKNRISITRDTSKNQFFLKLNSVTTEDTAKYYCARFGKGAMDYWGQGTSVTVSS
VL: AIVMFQSPSSLVVSAGEKVTMSCKSSQSLLNSRTRKNYLAWYQQKPGQSPKLLIYWASTRESGVPDRFTGSGSGTDFTLTISSVQAEDLAVYYCKQSYYLYTFGGGTKLEIK
notes: as for B1
With B8, the EC50 in assay [1] amounted to 0.765 µM; in assay [2], 0.394 µM; in assay [3], 1.43 µM.

B9: AB12 (antibody, V domains shown)
VH: EVKLMESGGDLVKPGGSLKLSCAASGFTFSSYAMSWVRQTPEKRLEWVASIRSGGTTYYPDSVKGRFTISRDNARNILYLRMSSLRSEDTAIYYCAKVGGNPYPMDYWGQGTSVTVSS
VL: DIQMIQSPSSMFASLGDRVSLSCRASQDIGGNLDWYQQKPGGTIKLLIYSTSNLNSGVPSRFSGSGSGSDYSLTITSLESEDFADYYCLQRNAYPLTFGAGTKLELK
notes: as for B1
Consider B9, for which the EC50 in assay [1] is 1.3 µM; in assay [2], 2.29 µM; in assay [3] it was not below 5 µM.

B10: AB11 (antibody, V domains shown)
VH: DVQLVESGGGLVQPRGSRKLSCAASGFTFSSFGMHWVRQAPEKGLEWVAYISSDSRTIYYADTVKGRFTISRDNPTNTLFLQMTSLRSEDTAMYYCARDYGRTYEAYWGQGTLVTVSA
VL: DIVLTQSPASLAVSLGQRATISCRASKSVSTSGYSYIHWYQQKPGQPPKLLIYLASNLESGVPARFSGSGSGTDFTLNIHPVEEEDAATYYCQHSRELPLTFGAGTKLELK
notes: as for B1
Take B10: the EC50 amounted to 0.363 µM in assay [1], 0.835 µM in assay [2] and 1.7 µM in assay [3].

The values above are taken from patent US20250333501A1 (University of California, published 2025).
